Measurements published in publication PMC10497415, “Lis1 relieves cytoplasmic dynein-1 autoinhibition by acting as a molecular wedge” (Nature Structural & Molecular Biology, 2023).

Biological target: the molecule itself
Assay: cryo-EM structure; 150 nM biotinylated dynein^E2488Q, 650 nM Lis1, 1.2 mM ATP, 1.2 mM Na3VO4, on streptavidin affinity grids; 4.1 Å map (C2), 3.6 Å after symmetry expansion

B1: S. cerevisiae Lis1 (Pac1) (natural protein)
chain: MTNWQQQLPLTDTQKNELDKSVLRYLNWNYKQTVRHEHAQDYESVRHAIVTLSGFLLQESVDRQEFISNNDTSNESMVDIDELLLPKKWNSIVRLQKKIIELEQNTETLVSQIKDLNTQVSELAQFKPTTSNGTSAHNVLKWIPRNLPSCLINVESSVTSVKLHPNLPIVFVATDHGKLYAFDLFNYTIPLASLQSHTKAITSMDVLFTNYTNSSKKNYLVIVTASKDLQIHVFKWVSEECKFQQIRSLLGHEHIVSAVKIWQKNNDVHIASCSRDQTVKIWDFHNGWSLKTFQPHSQWVRSIDVLGDYIISGSHDTTLRLTHWPSGNGLSVGTGHEFPIEKVKFIHFIEDSPEIRFRTPSTDRYKNWGMQYCVSASRDRTIKIWEIPLPTLMAHRAPIPNPTDSNFRCVLTLKGHLSWVRDISIRGQYLFSCADDKSVRCWDLNTGQCLHVWEKLHTGFVNCLDLDVDFDSNVTPRQMMVTGGLDCKSNVFMR
notes: Lis1 (Pac1), S. cerevisiae; a dimer; only the β-propellers are spoken of in the structure; also called yeast Lis1; source: S. cerevisiae, purified (Ni-NTA, IgG Sepharose, TEV cleavage)
  binding result: binds
